Laboratory results as given in patent US20250041326A1, “THERAPEUTIC AGENT FOR REFRACTORY VIRAL INFECTIONS” (TOKYO METROPOLITAN INSTITUTE OF MEDICAL SCIENCE, priority 2021, published 2025).

Key:
HBV [1] = assay: rcDNA and cccDNA in HBV-infected primary human hepatocytes treated with IFNλ1 protein; format: cell-based; settings: primary human hepatocytes persistently infected with HBV, 15 days treatment
Protocol: Primary human hepatocytes persistently infected with HBV were treated with IFNλ1 protein for 15 days, and rcDNA and cccDNA were quantified.
Primary human hepatocytes persistently infected with HBV for 22 days or longer (PhoenixBio Co., Ltd., Japan) were cultured in a medium containing recombinant human IFN-lambda 1 (R&D systems) with medium replacement every 5 days, and the cells were collected after 15 days.
DNA in the cells were extracted by the sodium iodide method.
The cells were mixed with 200 μL of lysis buffer (10 mM EDTA, 500 mM 2-mercaptoethanol, 50 mM Tris-HCl, 75 mM KCl, 5% sarcosyl, 0.1 μg/μL protease K, pH 8.0), followed by heating at 55° C. for 20 minutes. After addition of 300 μL of a NaI solution (40 mM Tris-HCl, 20 mM EDTA, 7.6 M sodium iodide, coprecipitant), the mixture was allowed to stand at room temperature for 15 minutes. After addition of 600 μL of mixed alcohols (40% isopropanol, 60% 1-butanol), the mixture was cooled on ice for 15 minutes. The mixture was centrifuged at 4° C. at 15,000×g for 20 minutes to precipitate DNA. […]
were used, and an aliquot equivalent to 250 ng gDNA was measured according to the protocol of THUNDERBIRD Probe qPCR Mix (TOYOBO). […]
(§1) were used, and the Plasmid-Safe ATP-dependent DNase-treated product (equivalent to 50 ng total DNA) was measured according to the protocol of THUNDERBIRD Probe qPCR Mix (TOYOBO). […]

HBV [2] = assay: cccDNA in HepG2 cells stably expressing HBV; format: cell-based, human; settings: 5 days, IRF1 plasmid 0.5 μg/well, IFN-lambda 1 100 ng/mL, or supernatant every day
Protocol: HepG2 cells made susceptible to HBV infection (HepG2-hNTCP-30 cells) were transfected with a 1.3-fold longer gene of HBV genotype C to prepare cells stably expressing HBV.
The primary human hepatocyte-derived human IRF1 gene (GenBank Accession No. NM_002198.3) was cloned into a pCI-neo Mammalian Expression Vector (Promega) to construct an IRF1 plasmid.
Using Lipofectamine 3000 (Invitrogen), the IRF1 plasmid (0.5 μg/well) was introduced by reverse transfection into HepG2 cells stably expressing HBV (2×10^5 cells/well, 48-well plate).
As an empty plasmid, a pCI-neo Mammalian Expression Vector was used.
Using the culture supernatant of the HepG2 cells stably expressing HBV (2×10^5 cells/well, 48-well plate) transfected with the IRF1 plasmid or the empty plasmid (0.5 μg/well), untransfected HepG2 cells stably expressing HBV (2×10^5 cells/well, 48-well plate) were treated every day for 5 days. Likewise, HepG2 cells stably expressing HBV were treated for 5 days with a medium containing recombinant human IFN-lambda 1 (100 ng/mL, R&D systems).
DNA in the cells were extracted by the sodium iodide method. […]
as §1

B1: IFNλ1 protein: recombinant human IFN-lambda 1 (R&D systems) (protein, UniProt Q8IU54 20-200, looked up)
Interferon lambda-1: GPVPTSKPTTTGKGCHIGRFKSLSPQELASFKKARDALEESLKLKNWSCSSPVFPGNWDLRLLQVRERPVALEAELALTLKVLEAAAGPALEDVLDQPLHTLHHILSQLQACIQPQPTAGPRPRGRLHHWLHRLQEAPKKESAGCLEASVTFNLFRLLTRDLKYVADGNLCLRTSTHPEST
In the case of B1, the cccDNA levels (HBV [1]) is reported as “reduced in a manner dependent on the amount”, the rcDNA levels (HBV [1]) is reported as “reduced in a manner dependent on the amount” and the cccDNA (HBV [2]) is reported as “not reduced”.
